Substrate in the data set: CCCC(=O)Oc1ccc([N+](=O)[O-])cc1
Description: purified protein. Conditions: 50 mM phosphate buffer pH 8.0, isopropanol as substrate solvent, temperature not stated. The format is biochemical, unidentified prokaryotic organism.

B1: LCC^ICCG (unidentified prokaryotic organism; D238C/F243I/S283C/Y127G) (protein)
chain: QSNPYQRGPNPTRSALTADGPFSVATYTVSRLSVSGFGGGVIYYPTGTSLTFGGIAMSPGYTADASSLAWLGRRLASHGFVVLVINTNSRFDGPDSRASQLSAALNYLRTSSPSAVRARLDANRLAVAGHSMGGGGTLRIAEQNPSLKAAVPLTPWHTDKTFNTSVPVLIVGAEADTVAPVSQHAIPFYQNLPSTTPKVYVELCNASHIAPNSNNAAISVYTISWMKLWVDNDTRYRQFLCNVNDPALCDFRTNNRHCQ
notes: ICCG variant of LCC, synthetic gene in pET-29a, C-terminal His6-tag, E. coli BL21(DE3), Ni-NTA purified
Turning to B1, the Km stood at 126.3 µM, the kcat was 67.5 s⁻¹ and the kcat/Km amounted to 534000 M⁻¹ s⁻¹.

B2: LCC^ICCG-ChBD (unidentified prokaryotic organism; D238C/F243I/S283C/Y127G) (protein)
chain: QSNPYQRGPNPTRSALTADGPFSVATYTVSRLSVSGFGGGVIYYPTGTSLTFGGIAMSPGYTADASSLAWLGRRLASHGFVVLVINTNSRFDGPDSRASQLSAALNYLRTSSPSAVRARLDANRLAVAGHSMGGGGTLRIAEQNPSLKAAVPLTPWHTDKTFNTSVPVLIVGAEADTVAPVSQHAIPFYQNLPSTTPKVYVELCNASHIAPNSNNAAISVYTISWMKLWVDNDTRYRQFLCNVNDPALCDFRTNNRHCQ
notes: C-terminal His6-tag; pET-29a, E. coli BL21(DE3), Ni-NTA purified; Chitinolyticbacter meiyuanensis SYBC-H1
B2: the Km is 141.8 µM, the kcat is 68.4 s⁻¹ and the kcat/Km turned out to be 404000 M⁻¹ s⁻¹.
